Measured values reported in the Immune Epitope Database (IEDB).

Legend:
HLA-A*02:01 [1] = assay: IEDB peptide-MHC binding, purified MHC/competitive/radioactivity; filed as Kd, often an IC50 or EC50 that approximates it; ≥ and ≤ were set here for values at or beyond the usual limits of such assays
HLA-A*02:17 = assay: as above
HLA-A*02:02 = assay: as above
HLA-A*02:06 = assay: as above
HLA-A*68:02 = assay: as above
HLA-A*02:03 = assay: as above
HLA-B*15:03 = assay: as above; settings: source organism: Vaccinia virus WR
HLA-A*30:01 = assay: as above; settings: source organism: Vaccinia virus WR
HLA-B*08:01 [2] = assay: as above; settings: source organism: Vaccinia virus WR
HLA-B*15:01 [3] = assay: as above; settings: source organism: Vaccinia virus WR
HLA-A*32:01 = assay: as above; settings: source organism: Vaccinia virus WR
HLA-B*40:01 = assay: IEDB peptide-MHC binding, purified MHC/direct/fluorescence; filed as Kd, often an IC50 or EC50 that approximates it; ≥ and ≤ were set here for values at or beyond the usual limits of such assays
HLA-A*03:01 = assay: as above
HLA-A*24:03 = assay: as above
HLA-B*27:05 = assay: as above
HLA-B*08:01 [4] = assay: as above
HLA-A*31:01 = assay: as above
HLA-B*44:02 = assay: as above
HLA-A*11:01 = assay: as above
HLA-B*58:01 = assay: as above
HLA-B*07:02 = assay: as above
HLA-B*15:01 [5] = assay: as above
HLA-A*26:01 = assay: as above
HLA-A*69:01 = assay: as above
HLA-A*02:01 [6] = assay: as above
HLA-A*01:01 = assay: as above
[7] = source organism: Dengue virus 2 Jamaica/1409/1983
[8] = source organism: Trypanosoma cruzi
[9] = source organism: Dengue virus 3 Martinique/1243/1999
[10] = source organism: Dengue virus 3 China/80-2/1980
[11] = source organism: Neisseria gonorrhoeae
[12] = source organism: Vibrio parahaemolyticus
[13] = source organism: Vibrio vulnificus
[14] = source organism: Dengue virus 1 Singapore/S275/1990

ALYGSVPVL
Kd (HLA-A*02:01 [1]; source organism: Homo sapiens): 8.1 nM

DLMCHATFTM
Kd (HLA-A*02:17; [7]): ≥ 70400 nM
Kd (HLA-A*02:01 [1]; [7]): 209 nM

DTMRPTTVV
Kd (HLA-A*02:02; [8]): ≥ 28900 nM
Kd (HLA-A*02:06; [8]): 3040 nM
Kd (HLA-A*68:02; [8]): 1.38 nM
Kd (HLA-A*02:03; [8]): 4630 nM
Kd (HLA-A*02:01 [1]; [8]): ≥ 83300 nM

ELADKVTKL
Kd (HLA-A*02:02; source organism: Homo sapiens): 33.2 nM
Kd (HLA-A*02:06; source organism: Homo sapiens): ≥ 38800 nM
Kd (HLA-A*68:02; source organism: Homo sapiens): 3.18 nM
Kd (HLA-A*02:03; source organism: Homo sapiens): 114 nM
Kd (HLA-A*02:01 [1]; source organism: Homo sapiens): 2510 nM

EMIQLQEEL
Kd (HLA-A*02:02; source organism: Homo sapiens): 123 nM
Kd (HLA-A*02:01 [1]; source organism: Homo sapiens): 3100 nM

FAGKTVWFV
Kd (HLA-A*02:17; source organism: Dengue virus 3 Sri Lanka/1266/2000): 293 nM
Kd (HLA-A*02:06; [9]): 39.5 nM

FIRYRMHPM
Kd (HLA-B*15:03): 21.6 nM
Kd (HLA-A*30:01): 2790 nM
Kd (HLA-B*08:01 [2]): 0.208 nM
Kd (HLA-B*15:01 [3]): 1.22 nM
Kd (HLA-A*32:01): 14300 nM

FMMVLLIPEP
Kd (HLA-A*02:17; [10]): 5730 nM
Kd (HLA-A*02:06; [9]): 124 nM
Kd (HLA-A*02:01 [1]; [10]): 93.1 nM

GLDVLTAKV
Kd (HLA-A*02:01 [1]; source organism: Homo sapiens): 132 nM

GLLTVCYVL
Kd (HLA-A*02:17; [7]): 802 nM

GSDKQVVGQ
Kd (HLA-B*40:01; [11]): ≥ 20000 nM
Kd (HLA-A*03:01; [11]): ≥ 20000 nM
Kd (HLA-A*24:03; [11]): ≥ 20000 nM
Kd (HLA-B*27:05; [11]): ≥ 20000 nM
Kd (HLA-B*08:01 [4]; [11]): ≥ 20000 nM
Kd (HLA-A*31:01; [11]): ≥ 20000 nM
Kd (HLA-B*44:02; [11]): ≥ 20000 nM
Kd (HLA-A*11:01; [11]): ≥ 20000 nM
Kd (HLA-B*58:01; [11]): ≥ 20000 nM
Kd (HLA-B*07:02; [11]): ≥ 20000 nM
Kd (HLA-B*15:01 [5]; [11]): ≥ 20000 nM
Kd (HLA-A*26:01; [11]): ≥ 20000 nM
Kd (HLA-A*69:01; [11]): ≥ 20000 nM
Kd (HLA-A*02:01 [6]; [11]): ≥ 20000 nM
Kd (HLA-A*01:01; [11]): ≥ 20000 nM

ILLRKGHVF
Kd (HLA-B*40:01; [12]): ≥ 20000 nM
Kd (HLA-A*03:01; [12]): ≥ 20000 nM
Kd (HLA-A*24:03; [13]): 4280 nM
Kd (HLA-B*27:05; [12]): ≥ 20000 nM
Kd (HLA-B*08:01 [4]; [13]): 107 nM
Kd (HLA-A*31:01; [12]): ≥ 20000 nM
Kd (HLA-B*44:02; [12]): ≥ 20000 nM
Kd (HLA-A*11:01; [12]): ≥ 20000 nM
Kd (HLA-B*58:01; [12]): ≥ 20000 nM
Kd (HLA-B*07:02; [13]): 10000 nM
Kd (HLA-B*15:01 [5]; [13]): 115 nM
Kd (HLA-A*26:01; [12]): ≥ 20000 nM
Kd (HLA-A*69:01; [12]): ≥ 20000 nM
Kd (HLA-A*02:01 [6]; [12]): ≥ 20000 nM
Kd (HLA-A*01:01; [12]): ≥ 20000 nM

ITKINTHLA
Kd (HLA-B*15:03): ≥ 51400 nM
Kd (HLA-A*30:01): 14.9 nM
Kd (HLA-B*08:01 [2]): ≥ 22100 nM
Kd (HLA-B*15:01 [3]): 2890 nM
Kd (HLA-A*32:01): ≥ 77800 nM

KGKAAAFAK
Kd (HLA-B*15:03): 1900 nM
Kd (HLA-A*30:01): 3.12 nM
Kd (HLA-B*08:01 [2]): ≥ 77700 nM
Kd (HLA-B*15:01 [3]): 12000 nM
Kd (HLA-A*32:01): ≥ 56000 nM

KLVMAFIAFL
Kd (HLA-A*02:17; [14]): 22.4 nM
Kd (HLA-A*02:06; source organism: Dengue virus 1 Brazil/97-11/1997): 11.5 nM
Kd (HLA-A*02:01 [1]; [14]): 28.9 nM

KSIEQHPVV
Kd (HLA-B*15:03): 79.6 nM
Kd (HLA-A*30:01): 2.7 nM
Kd (HLA-B*08:01 [2]): 11700 nM
Kd (HLA-B*15:01 [3]): 70.5 nM
Kd (HLA-A*32:01): 1910 nM
